Test results taken from the RNAGym collection of RNA variant scans (doi:10.1093/molbev/msab373).

B1: Azoarcus group I ribozyme (parent)
chain: GUGCCUUGCGCCGGGAAACCACGCAAGGGAUGGUGUCAAAUUCGGCGAAACCUAAGCGCCCGCCCGGGCGUAUGGCAACGCCGAGCCAAGCUUCGGCGCCUGCGCCGAUGAAGGUGUAGAGACUAGACGGCACCCACCUAAGGCAAACGCUAUGGUGAAGGCAUAGUCCAGGGAGUGGCGAAAGUCACACAAACCGG

Variants of: B1
Experiment: reverse-splicing fitness (ratio to wild type); higher = more active; in vitro selection; Mg2+ level not given
Summary of the method: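 An in vitro group I ribozyme library with randomized positions was T7-transcribed and gel-purified. In triplicate, 10 pmol RNA in EPPS pH 7.5 was reacted with 50 pmoles of a 30-nt RNA substrate for 1 h at 37 °C across several added MgCl2 levels (1–48 mM), then stopped with EDTA. Products were reverse transcribed from a substrate-complementary primer, PCR-amplified and sequenced (HiSeq 4000). Fitness is a variant's read proportion after selection over that before, normalised to wild type.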

Variant	reverse-splicing fitness
C82G A120U C150A U176G	0.00569
C82G A120U C150A U176A	0.0102
C82G A120U C150A U176C	0.0129
C82G A120U A145G C150A C169U U176A	0.00465
C82G A120U A145G C150A C169U U176C	0.00375
C82G A120U A145G C150A C169U U176G	0.00206
C82G A120U A145C C150U U176C	0.0197
C82G A120U A145C C150U U176A	0.0158
C82G A120U A145C C150U U176G	0.00871
C82G A120U A145C C150U C169G U176G	0.00162
C82G A120U A145C C150U C169G U176A	0.00262
C82G A120U A145C C150U C169G U176C	0.00277
C82G A120U A145U C150U C169U U176A	0.00283
C82G A120U A145U C150U C169U U176G	0.00159
C82G A120U A145U C150U C169U U176C	0.00342
C82G A120U A145G C150A U176G	0.00517
C82G A120U A145G C150A U176C	0.014
C82G A120U A145G C150A U176A	0.0118
C82G A145G C169A	0.00951
C82G A120U A145U	0.23
C82G A120U A145G	0.229
C82G A120U A145G C150G	0.022
C82G A120U A145G C150U	0.168
C82G A120U A145G C150A	0.0245

Variant	reverse-splicing fitness
C82G A145C C150G U176C	0.0389
C82G A145C C150G U176A	0.0337
C82G A145C C150G U176G	0.0106
C82G A120U A145G C150A C169A	0.00575
C82G A120U A145G C150A C169U	0.00376
C82G A120U A145G C150A C169G	0.00459
C82G A145G C150U C169G U176G	0.00499
C82G A145G C150U C169G U176C	0.0184
C82G A145G C150U C169G U176A	0.0145
C82G A120U A145U C169U	0.00672
C82G A120U A145U C169G	0.00637
C82G A120U A145U C169A	0.00221
C82G A120U A145U C150G C169U U176A	0.003
C82G A120U A145U C150G C169U U176G	0.00234
C82G A120U A145U C150G C169U U176C	0.00223
C82G A120U A145U C150A C169G U176C	0.00192
C82G A120U A145U C150A C169G U176G	0.00134
C82G A120U A145U C150A C169G U176A	0.00221
C82G A120U C150G C169U	0.00456
C82G A120U C150G C169G	0.0053
C82G A120U C150G C169A	0.00734
C82G A145C C150A C169G U176A	0.0223
C82G A145C C150A C169G U176G	0.00624
C82G A145C C150A C169G U176C	0.0105

Variant	reverse-splicing fitness
C82G A145G C150U U176G	0.106
C82G A145G C150U U176A	0.264
C82G A145G C150U U176C	0.291
C82G A120U A145U C150U C169A	0.00259
C82G A120U A145U C150U C169G	0.00513
C82G A120U A145U C150U C169U	0.00488
C82G A120U A145U C150A C169A U176A	0.00218
C82G A120U A145U C150A C169A U176G	0.00156
C82G A120U A145U C150A C169A U176C	0.00199
C82G A120U C150A C169G U176C	0.00368
C82G A120U C150A C169G U176A	0.00631
C82G A120U C150A C169G U176G	0.00199
C82G A120U C169A U176G	0.000985
C82G A120U C169A U176A	0.00247
C82G A120U C169A U176C	0.00259
C82G A145C C169U U176C	0.0115
C82G A145C C169U U176A	0.0128
C82G A145C C169U U176G	0.00465
C82G A145C	0.45
C82G A145G	0.458
C82G A120U A145G C150G C169A U176G	0.00485
C82G A120U A145G C150G C169A U176C	0.00809
C82G A120U A145G C150G C169A U176A	0.012
C82G A120U A145G C169U U176A	0.00419

Variant	reverse-splicing fitness
C82G A120U A145G C169U U176C	0.00453
C82G A120U A145G C169U U176G	0.00154
C82G A120U C169G U176G	0.00147
C82G A120U C169G U176A	0.00367
C82G A120U C169G U176C	0.00322
C82G A120U C150A C169U U176C	0.00296
C82G A120U C150A C169U U176A	0.00396
C82G A120U C150A C169U U176G	0.00185
C82G A120U A145G C150G C169U U176C	0.00701
C82G A120U A145G C150G C169U U176A	0.00829
C82G A120U A145G C150G C169U U176G	0.00451
C82G A120U A145U C150U C169A U176G	0.00157
C82G A120U A145U C150U C169A U176A	0.00183
C82G A120U A145U C150U C169A U176C	0.00197
C82G A120U A145G C150U C169A U176A	0.00578
C82G A120U A145G C150U C169A U176C	0.0027
C82G A120U A145G C150U C169A U176G	0.00223
C82G A120U A145U C169G U176A	0.00234
C82G A120U A145U C169G U176C	0.00292
C82G A120U A145U C169G U176G	0.00119
C82G A120U A145U C150G C169G U176A	0.00237
C82G A120U A145U C150G C169G U176C	0.0022
C82G A120U A145U C150G C169G U176G	0.00182
C82G A120U A145C C169A U176C	0.00168

Variant	reverse-splicing fitness
C82G A120U A145C C169A U176A	0.00185
C82G A120U A145C C169A U176G	0.00157
C82G A145C C150A C169U U176G	0.00493
C82G A145C C150A C169U U176C	0.00742
C82G A145C C150A C169U U176A	0.0123
C82G A145C C150U U176C	0.0809
C82G A145C C150U U176A	0.0881
C82G A145C C150U U176G	0.0373
C82G A145C C150G C169G U176A	0.00973
C82G A145C C150G C169G U176C	0.00656
C82G A145C C150G C169G U176G	0.0054
C82G A120U A145G C150G C169G U176A	0.00901
C82G A120U A145G C150G C169G U176G	0.00411
C82G A120U A145G C150G C169G U176C	0.00637
C82G A145C C150U C169A U176C	0.00579
C82G A145C C150U C169A U176G	0.00476
C82G A145C C150U C169A U176A	0.0111
C82G A120U C150U U176C	0.058
C82G A120U C150U U176A	0.0366
C82G A120U C150U U176G	0.0119
C82G A120U A145U C169U U176A	0.00334
C82G A120U A145U C169U U176C	0.00402
C82G A120U A145U C169U U176G	0.00148
C82G A120U A145G C169A U176C	0.00321

Variant	reverse-splicing fitness
C82G A120U A145G C169A U176A	0.00356
C82G A120U A145G C169A U176G	0.00159
C82G A120U C150U C169G U176A	0.00481
C82G A120U C150U C169G U176C	0.00376
C82G A120U C150U C169G U176G	0.00205
C82G A120U C150G C169A U176A	0.00571
C82G A120U C150G C169A U176C	0.00402
C82G A120U C150G C169A U176G	0.00278
C82G A145G C150U C169U	0.0159
C82G A145G C150U C169A	0.0118
C82G A145G C150U C169G	0.012
C82G A120U A145U C169A U176G	0.0013
C82G A120U A145U C169A U176C	0.00205
C82G A120U A145U C169A U176A	0.00245
C82G A120U A145G C150G C169G	0.0074
C82G A120U A145G C150G C169A	0.00872
C82G A120U A145G C150G C169U	0.00739
C82G A120U A145U C150A U176A	0.0083
C82G A120U A145U C150A U176C	0.0105
C82G A120U A145U C150A U176G	0.00423
C82G A145C U176C	0.35
C82G A145C U176A	0.378
C82G A145C U176G	0.153
C82G A120U A145G C150A C169A U176G	0.00256

Variant	reverse-splicing fitness
C82G A120U A145G C150A C169A U176A	0.00645
C82G A120U A145G C150A C169A U176C	0.00287
C82G A120U A145G C169G U176A	0.00368
C82G A120U A145G C169G U176C	0.00438
C82G A120U A145G C169G U176G	0.00145
C82G A120U A145C C169U U176A	0.00266
C82G A120U A145C C169U U176C	0.00223
C82G A120U A145C C169U U176G	0.00148
C82G A120U A145G C150G U176A	0.00899
C82G A120U A145G C150G U176C	0.0152
C82G A120U A145G C150G U176G	0.0041
C82G A145C C150G C169U	0.01
C82G A145C C150G C169A	0.00875
C82G A145C C150G C169G	0.00714
C82G A120U A145G C150U C169U U176C	0.00469
C82G A120U A145G C150U C169U U176A	0.00444
C82G A120U A145G C150U C169U U176G	0.00216
C82G A145C C150U	0.0965
C82G A145C C150A	0.0227
C82G A145C C150G	0.0512
C82G A120U A145U C150U	0.131
C82G A120U A145U C150G	0.0173
C82G A120U A145U C150A	0.0151
